The DeepSol protein solubility set

experiment: soluble on expression in E. coli; label from the status in PepcDB or PDB records

Soluble on expression in E. coli, not soluble:
MGSDKIHHHHHHMSIINDEKLRKYVPEERLDKVKERLEILDTYDLSYITSNFIWKGRRFSPEQVWPIKIYYGKADRELAEKIEKEFRRFVALTIVFPKRLFTASGAVDLYWHFLILHTKEYEKFSKSVWGIPRYDNVLLKKLLNNDDNSFRLRFNLKPDNVNEITILPKKALESLDDKTLDRVLMLERLDLSPISENLLHTIDEFKFVPEQRFPLIAHFGKLDNNIVKRIELEFKKWMALNIAYGGKELNYAAPSGVVDMYFHLFILHTILYKQFCEIFFGKFIHHPLGELF, MGSDKIHHHHHHMSILTVENVSHSYGEKTILYNACFRLLKGEHVGLVGQNGIGKSTLLKILTGELIHDEGNIEWFPHVKVGFLQQHIDLQEGITIEGYLQSAFADLYVIECEMLKIAEEMNGAGEVEKLLVKYGELQTILESSNFYHIHTEVEEVAIGLGLFEIGLKKDVSKLSGGQRTKLLLGKLLLEKADVLLLDEPTNYLDTAHIEWLQSYLRLYEKAYVIISHDELFLNSITNVIFHLEGGKVKRYVGNYEKFVQSYQVQKKQLQSAYVKQQKEISQLETFIQKNKIRKAKQAKSREKVLEKMQRIEKIHPVPRSRFDFNVYEEPVSRILQAEKLRIGYSDPLCPELNLQVKKGEKIAIIGHNGIGKTTMLKTLLGQIKPLSGSISVGERVNPAYFAQEEFASETTPLEKVWAERPDMTKKEVRQALAKCGLKEEHVLKPIRLLSGGEQTKVRLCELIVKKSNVLILDEPTNHLDIETKKALQEALQRYRGTVLLVSHEPSFYEAWITKVWNIEEWNAEQYE, MGSDKIHHHHHHMSILVPEQVREALDVHVVSFLGGRLNKHWLVDVCGHKLVLRRWAADREDAGYERDLRQAIRASGWPVARDVTALTEIAGELWSLAEFLPGEPHPEKNSAAELSLRGRLMAEFHQVTASLNPGRRKHWRLPDEILSDDHLEQVFEHCPDVRLRRLLFWHLQRGRQLAAGLPWSEQSLQLIHGDFTPWNLLYREGQLSGLLDCEMSRPEYRISEFALSWRGRYDALIHAYHAVSPLSAPEWNMLTPAWWALLLEGAYRNLVSGTEDQGWTAGMLLRRSPLMGIESCPC, MGSDKIHHHHHHMSISQMQVFNKYFMPAIIETLGQQIQKFNAASRGAIMLTTAGFEGDFLQESFYQAIHGARRRVDRYAANGSASPTDLTQLKHSSVKVAGGFGPIRYEPSQMTWLEKPTAEGIEVASRHFAEALLQDQLNTAIAALVAAISNQALATVNVSAKTGLNYSVLNDAHAKFGDSSGLIVANVMSGQVYHKLIGQNLVNAQQLFEYGAVTVVDILGKTVVVTDAPALYATGTPNLQKVLGLVAGAATVSDGGDLITNIETSNGKERIETTFQADYTFGLGLKGYTWDEATGGKSPTDAELATGTNWDKVATDIKHTAGVIAIGDASK, MGSDKIHHHHHHMSKFHELTVASVTRETRDAVAVTFAVPEDLADTYRYVQGQHLTLRAGIGGEDVRRSYSICSAVQDRRLRVAIKRVDGGMFSNWANDALQPGMTLEVMPPSGHFHVPLSDTHSKHYVAFAAGSGITPMLSIIKTTLMTEPDSRFTLFYGNRASSSVLFKEELEDLKDTYLERFNLVFILSREQLDIDLFNGRIDGEKVRALLRHWVRPQDIDVAFICGPHSMMEEVSQALQENGVDKARIKRELFATSIPAARPAAHAHKQLGQQQCEVTVIQDGRTRQFTLEKNKETILDAALAQGIELPYSCKGGVCSTCRCKRIEGEVDMDVNFALEDYEVARGFILSCQSYAVTDKLVIDFDQET, MGSDKIHHHHHHMSKILMVGSGPVAIQLARLCNLHGEHMVDMVSRVHASTKSKRVFDAYHRDGFFSVMTQNDAHQCFSGKFTVRHFFKDVKDITQYYDVVILACTADAYRPILQQLSKSTLKRIKQIILVSPTLGSHMLVKQILSDVHCEGEVISFSTYLGDTRIFDKAQPHCVLTTRVKSKLFVGSTHSQSITLYKLKSLFDYLNIELTTMDTPLHAEIHNSSLYVHPPLFMNQFSLKAVFEGTKVPVYVYKLFPEGPITMTLIHEMRLMWQEMMMILKKLKVPSVNLLKFMVKENYPIRDETMREVDIESFENLSAIHQEYLLYVRYTAILIDPFSNPDDQGAYFDFSAVPYKHVDTDEQGVIHIPRMPSEDYYRTLMIQAIGRALNVATPMIDTMLLRYETTVKQYCDTHLHQQLSKQFELHHFKQDLALVTNYLTFYR, MGSDKIHHHHHHMSLDNHYDVDAALDKALKDDFLRKATRRATDRLRNNKLAITEELGNWEEWRQVGERIRNHVVENLDYYLDMLIENVEKNGGHVHLAKTPEDGVRIVQEIFQKHGFKSVIKSKSMITEEIHLNPVLEKDGIEVVETDLAEYIIQIADEPPSHIIVPAMHKTREQIAKLFEPIAGHPLESDTPTLTKFAREQLREKFLTSKIGITGCNFAVADTGTITMVTNEGNGRLTSTMPEVQITMMGMERIVPSYKELSVLLNLLARSATGQRLSVYTTMITPPKREGDIDGPKEWHLVILDHNRSEILGDEDFRSSLRCIRCGACFNVCPVYRQVGGHAYGSVYSGPIGVVITPLLEQNYEKWGHLPYYSSLCAACSEACPVRIPLQDLIVKHRDRKVLKGYTSGVEKKIFKYYGYYFSHPKTLSKFVRLGSKFQFILMRNGRIASGPPPLSNWTNSKTLPPVAKQMFRDQWPELEKKLKTMQRGDQ, MGSDKIHHHHHHMSLFAALRLPREILFGKGQRHALSTVAGRFGRHALVCTDERFAGTAVFAEIVQSLQAASIEVLVHDRVLPDVPRDSVGICVDEAEKFQPEMVIGIGGGSCLDFAKCADLLLSHGGKLQDYYGEFKVPGPTLPLIAVPTTAGTGSEVTPVAVISDPDRTLKVGISSPYLIAAVALCDPELTMTCPPALTAIAGADALTHAIEAFTAKQRGEDPSLAQQHVFIGKTALTDHFALLAIKLLGRSLEKACTDGTDADARADVMMGALAAGCAFGTAGTAAAHAVQYPAGALTHTAHGLGVATMMPYVMTYNSRVVAAEMAEIGDALGLEAKGRSAEEMADATIKEIRRLFTAIGITPTLADLGLPADKLDWTADQALGIDRLIKNNPRPFDLTAMRRLVQAAHDGDLAACAM, MGSDKIHHHHHHMSLSPQASAAPEQGYNFAYLDEQTKRMIRRGLLKAVAIPGYQVPFGGREMPLPYGWGTGGMQVTAAILGADDVLKVIDQGADDTTNAVSIRRFFARTAGVATTERTPEATVIQTRHRIPETALSGEQIMVYQVPIPEPLRFIEPSEAETRTMHALDDYGVMHVKLYEDIATFGHIATSYAYPVTVDERYVMDPSPIPKFDNPKLDMNPALMLFGAGREKRLYAVPPFTRVASLDFEDHPFEVQRWEESCAFCGSHESYLDELIVDDRGGKRFVCSDTDYCTQRRARQEEGEDAQ, MGSDKIHHHHHHMSNANPSRLGMVNGTGADDALFLKVFGGEVLTTFAENNVFLPLTMSRTITSGKSAQFPVLGKNTAYYHVPGAELNGNNILNAERVITVDGLLVSPVFIAKIDEAKTHYDVRSQYTSECGASLSNQADRTISQVLINAARSTATITGGFGGTKLVDAAFGTDGDKLAAGIFGIAQTFDEKDVPETDRYAAVRPAQYYLMVAGTKVLNRDWGGSGSYMDGKVLKVAGVSIVKSNHIPKSVITGSAQAAYDGDFTKTVAVGFHKSAVGTVKLLDLQTEGEYQIQRQGTLIVAKYAMGHGVLRPEAAVELASA, MGSDKIHHHHHHMSNHSSSIPELSDNGIRYYQTYNESLSLWPVRCKSFYISTRFGQTHVIASGPEDAPPLVLLHGALFSSTMWYPNIADWSSKYRTYAVDIIGDKNKSIPENVSGTRTDYANWLLDVFDNLGIEKSHMIGLSLGGLHTMNFLLRMPERVKSAAILSPAETFLPFHHDFYKYALGLTASNGVETFLNWMMNDQNVLHPIFVKQFKAGVMWQDGSRNPNPNADGFPYVFTDEELRSARVPILLLLGEHEVIYDPHSALHRASSFVPDIEAEVIKNAGHVLSMEQPTYVNERVMRFFNAETGISR, MGSDKIHHHHHHMSNRKINPFVVTGKIEPEYFCDRESESARLIKSIANGNNSVVISPRRMGKTGLIQFCYDKEEIGRNYYTFFIDILHTSSLREFTYLLGREIYETLLPQSKKMINLFVRTLKSISGRFGFDPVSGMPTFGIELGDIEHPEYTLEEIFRYLADADRPCIVAIDEFQQIAKYPEKNIEALLRTHIQKLRNCNFIFAGSERHMMQEMFASAARPFYHSADMLELKAIEADVYIPFIVGHFEKRDRSISPDDAARVYRLFKGHTFYIQKTFNEAFADTPEGEVCTPEIIESAIDNMIASNDTIFREILSNIPEKQKTLLYAIAKEGEAERITSTGFIKRHNLISASSVQSAANKLLDKDIITEINKVYCVTDKLFAMWINTLYGTKDFWRMTSRP, MGSDKIHHHHHHMSNSSRLSVASNSQDATSPLRLLVLSNGHGEDVIAVRILQELQRQSNPPEIFALPLVGEGRAYQQLEIPLIGSVRTMPSGGFIYMDGRQLARDVRGGLLQLTLSQIKAVRRWVSSQKKLGNKRAILAVGDIVPLLFATFSGANYAFVGTAKSEYYVRDEAGLLPRKSKDARWENFSGSVYHPWERWLMSRRRCKAVFPRDVLTTETLKQWPIPAFNLGNPMMDGLQPTFSRQQFYSRDSHQQETVRPLMVTLLPGSRPPEAYTNWEKIMIAVSALMASFQERDSVFYTSGTVVFLGAIAPGLDSNILSQSVQSQGWRAESVCPIQLPDPNILTFKQRNAYLLLTQQSYNDCLHLGDFAIAMAGTATEQFIGLGKPAIAIPGNGPQYNPAFAEAQSRHLGSSLILVEQPAEVAEIVQSLFKDPDILQIIAENGLRRMGKPGAALRIAECLQERLS, MGSDKIHHHHHHMSNYRNPHQLIITADDYGMCPEVNRAIEECLAAGALRATCVMTNMPAYTDADRLSKDFPSASIGIHWTLTAGTPVAPLSEVPDLVAPNGQFWPAAEFRQRWLSRRISPTQVVIELQAQHARFVELIGQPAFWNTHQNVHVLPRLFPLVVDLAHRLGIPAMRSHRRITAPRHSSTLRYYLTHPIYWLKGQIIARWAAAAEKRGLRMPAGVVSTPGFGPGKVAIDQIIARIPWPRRLPAELVIHPATRVIPGLFGGLTESRLREFEVFRDPTLVERLAAMGVQPVGFEVL, MGSDKIHHHHHHMSPLKSFLGVIYMNRSERLNQELIFLSYRQEFHIKELMQEFNISKRTALRDVNSLEQLGLSIYVEPGRYGGYQIMQQQLWVPILLNSQEINALFFALKALSLLSATPFEKSYHTIYKKLMATLSLSNQRQVAKLQRVVNYYSIPNLDAPTHLSDLLTAILDENVVQLTMTTVTAGFQIFDLLYRHGIWFFSGVNLDNNAWGIYRCDTIKVFQTSEQPARYTWKQLAQRQRSYDHHHHNIRYKCALTPPGREHVQKNNYPNMHLTHQNDQDYLIGGYNQDELAYMVDYLLGLGRNVRIIYPEALKTAYLQELQQIQDFY, MGSDKIHHHHHHMSQTLEQVIQNAGDLVNFVRNQQVGPNVYPGVPAEYSNWRNEQWAWAHSAVLYNQSYHMVDLAVKGPDAFKMLEHLGINSFKNFQPDRAKQFVPVTPDGYVIGDVILFYLDENHFNLVGRAPTIEWVEYHAASGNWNVTVERDERWAMRTDGKRNSYRFQIQGPNAMKIIEKATGKTAPDLKFFHMTRMTIGGKEVRALRHGMAGQPGFELMGPWEDYGAVHAALVEAGKGFQMALVGGRAYSSNTLESGWIPSPFPAIYTGEALRPYREWLSANSYEAKCSVGGSYVPETIEGYYTTPWDLGYGPFVKFDHDFIGRAALEKMAAEGKHRTKVTLALDNEDVMRVQSSALSKGDRAKFMEYPSAVYSMHPFDQVLADGKMVGLSTWIGYTANEGKFLTLAMMEPGYVEPGTQVSLLWGEPNGGTTKPTVEPHVQTEIKATVAAVPYSEVARDSYAEGWRTKK
